Consider seven sequences from the supplement of paper PMC5998384.

The test system of data set [1] is HeLa Kyoto. The data set is described as follows: solubility in G1/S (NP-40 vs SDS abundance) (log2 ratio); higher = more soluble. The note with it: cell cycle stage: G1/S.
For data set [2], the system named is HeLa Kyoto. Kind of data set: melting temperature (median over replicates), in situ; higher = more thermally stable.
In data set [3] the test system is HeLa Kyoto. Kind of data set: solubility change mitosis vs G1/S (difference of NP-40 vs SDS log2 ratios) (log2 ratio difference); higher = more soluble in mitosis.
In data set [4] the test system is HeLa Kyoto. The data set is described as follows: thermal stability score vs G1/S (z-score of summed log2 fold changes over temperatures); higher = more thermally stable than in G1/S.
Setting [5] is: cell cycle stage: early G1 (4.5 h after nocodazole release).
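For melting temperature (median over replicates), in situ in this document: HeLa Kyoto cells synchronized by double thymidine or nocodazole block, proteins quantified by TMT10plex mass spectrometry, three independent biological replicates.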
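For solubility change mitosis vs G1/S (difference of NP-40 vs SDS log2 ratios) in this document: synchronized HeLa Kyoto cells (double thymidine block for G1/S, nocodazole release for mitosis), protein amounts in NP-40 versus SDS lysates quantified by mass spectrometry, three biological replicates.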
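For solubility in G1/S (NP-40 vs SDS abundance) in this document: HeLa Kyoto cells arrested at G1/S by double thymidine block, proteins quantified by TMT10plex mass spectrometry in mild NP-40 versus SDS extracts, three biological replicates.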
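For thermal stability score vs G1/S (z-score of summed log2 fold changes over temperatures) in this document: synchronized HeLa Kyoto cells, proteins quantified by TMT10plex mass spectrometry, three biological replicates, mitosis taken 0.5 h after nocodazole release, G1/S directly after double thymidine block.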

“MCGDCVEKEYPNRGNTCLENGSFLLNFTGCAVCSKRDFMLITNKSLKEEDGEEIVTYDHLCKNCHHVIARHEYTFSIMDEFQEYTMLCLLCGKAEDTISILPDDPRQMTLLF [CHURC1]”: the “solubility in G1/S (log2)” value in data set [1] was found to be 0.0387. Further, the figures for the melting temperature in data set [2] (cell cycle stage: G1/S) and in data set [2] (cell cycle stage: mitosis) were 51.5 °C and 52.5 °C, respectively. Besides, the “solubility change mitosis (log2)” value in data set [3] is -0.361. Moreover, the thermal stability score was -2.8 in data set [4] (setting [5]) and -3.3 in data set [4] (cell cycle stage: mitosis).
Turning to “MCGNTMSVPLLTDAATVSGAERETAAVIFLHGLGDTGHSWADALSTIRLPHVKYICPHAPRIPVTLNMKMVMPSWFDLMGLSPDAPEDEAGIKKAAENIKALIEHEMKNGIPANRIVLGGFSQGGALSLYTALTCPHPLAGIVALSCWLPLHRAFPQAANGSAKDLAILQCHGELDPMVPVRFGALTAEKLRSVVTPARVQFKTYPGVMHSSCPQEMAAVKEFLEKLLPPV [LYPLA2]”, in data set [1], the “solubility in G1/S (log2)” value was 0.543. Besides, the melting temperature turned out to be 53.3 °C in data set [2] (cell cycle stage: G1/S) and 53 °C in data set [2] (cell cycle stage: mitosis). The “solubility change mitosis (log2)” value in data set [3] is 0.185. In addition, the thermal stability score in data set [4] (setting [5]) was -1.02; in data set [4] (cell cycle stage: mitosis) it was 0.00875.
Turning to “MCNTPTYCDLGKAAKDVFNKGYGFGMVKIDLKTKSCSGVEFSTSGHAYTDTGKASGNLETKYKVCNYGLTFTQKWNTDNTLGTEISWENKLAEGLKLTLDTIFVPNTGKKSGKLKASYKRDCFSVGSNVDIDFSGPTIYGWAVLAFEGWLAGYQMSFDTAKSKLSQNNFALGYKAADFQLHTHVNDGTEFGGSIYQKVNEKIETSINLAWTAGSNNTRFGIAAKYMLDCRTSLSAKVNNASLIGLGYTQTLRPGVKLTLSALIDGKNFSAGGHKVGLGFELEA [VDAC3]”, in data set [1], the “solubility in G1/S (log2)” value was -0.0264. Besides, the melting temperature in data set [2] (cell cycle stage: G1/S) is 61.6 °C; in data set [2] (cell cycle stage: mitosis) it was 59.9 °C. For the same sequence, the “solubility change mitosis (log2)” value in data set [3] is -0.0561. Moreover, the thermal stability score is -1.43 in data set [4] (setting [5]) and -4.76 in data set [4] (cell cycle stage: mitosis).
As for “MDAAEVEFLAEKELVTIIPNFSLDKIYLIGGDLGPFNPGLPVEVPLWLAINLKQRQKCRLLPPEWMDVEKLEKMRDHERKEETFTPMPSPYYMELTKLLLNHASDNIPKADEIRTLVKDMWDTRIAKLRVSADSFVRQQEAHAKLDNLTLMEINTSGTFLTQALNHMYKLRTNLQPLESTQSQDF [GINS2]”, the “solubility in G1/S (log2)” value in data set [1] worked out at 0.24. In addition, the figures for the melting temperature in data set [2] (cell cycle stage: G1/S) and in data set [2] (cell cycle stage: mitosis) were 50.9 °C and 52.4 °C, respectively. Further, in data set [3], the “solubility change mitosis (log2)” value was 0.34. In addition, the values for the thermal stability score in data set [4] (setting [5]) and in data set [4] (cell cycle stage: mitosis) were -1.69 and -2.97, respectively.
With “MDAPRASAAKPPTGRKMKARAPPPPGKAATLHVHSDQKPPHDGALGSQQNLVRMKEALRASTMDVTVVLPSGLEKRSVLNGSHAMMDLLVELCLQNHLNPSHHALEIRSSETQQPLSFKPNTLIGTLNVHTVFLKEKVPEEKVKPGPPKVPEKSVRLVVNYLRTQKAVVRVSPEVPLQNILPVICAKCEVSPEHVVLLRDNIAGEELELSKSLNELGIKELYAWDNRRETFRKSSLGNDETDKEKKKFLGFFKVNKRSNSKGCLTTPNSPSMHSRSLTLGPSLSLGSISGVSVKSEMKKRRAPPPPGSGPPVQDKASEKVSLGSQIDLQKKKRRAPAPPPPQPPPPSPLIPNRTEDKEENRKSTMVSLPLGSGSHCSPDGAPQVLSEAEETVSVGSCFASEDTTEDSGVMSSPSDIVSLDSQQDSMKYKDKWATDQEDCSDQDLAGTPDLGPQKSPLWEKNGSENSHLRTEKAVTASNDEEDLLIAGEFRKTLAELDEDLEEMEDSYETDTSSLTSSIHGASNHCPQDAMIPHGDTDAIPVTFIGEVSDDPVDSGLFSNRNNNAGSFDSEGVASRRDSLAPLQAEHSQPHEKAREEVPALHPASHDVGKGIRVALSNISKDGNLMETAPRVTSFASNLHTDNLNAKVKDKVYGCADGERTQATERVNSQPVNEKDSNDKNAALAPTSWHQRGQNPGKSYRLKHGLTTYKIIPPKSEMRCYDRDVSLSTGAIKIDELGNLVSPHATGIRIISLSSSVPEAESQPIGKVREFWRCNSVEKHLGRPSESSARGPPSTPVPTQTQNPESRLQADPKPISPQQKSAHHEGRNPLGEGRNQPPTMGMGHVRVPAAHTTEVTFLKPQRRTSSQYVASAIAKRIGAPKVHADVVRPHGYAEKGYAGKAPVLAAPPVTVKDDRTSSPHSETQGWKDGAQWPCVTPPNNHGEDLAVGAPPRGEVIGPHRKLSTQDRPAAIHRSSCFSLVQSSQRDRVSVGQSCGFSGKQSTSSQEASSASEPRRAPDGTDPPPPHTSDTQACSRELVNGSVRAPGHGEPSHPPGGSGTESHILLEREEKPSVFSTDGNETDSIWPPSIFGPKKKFKPVVQRPVPKDTSLHSALMEAIHSAGGKDRLRKTAEHTGEGRPAKLSYTEAEGERSALLAAIRGHSGTCSLRKVASSASEELQSFRDAALSAQGSESPLLEDLGLLSPPAIPPPPPPPSQALSAPRTASRFSTGTLSNTADARQALMDAIRSGTGAARLRKVPLLV [COBL]”, the “solubility in G1/S (log2)” value in data set [1] is -0.423. The melting temperature was 49.1 °C in data set [2] (cell cycle stage: G1/S) and 49.8 °C in data set [2] (cell cycle stage: mitosis). In addition, the “solubility change mitosis (log2)” value in data set [3] came out at 0.177. Further, the values for the thermal stability score in data set [4] (setting [5]) and in data set [4] (cell cycle stage: mitosis) were 1.3 and 1.18, respectively.
Take “MDDDDFGGFEAAETFDGGSGETQTTSPAIPWAAFPAVSGVHLSPSSPEIVLDRDHSSSIGCLSSDAIISSPENTHAANSIVSQTIPKAQIQQSTHTHLDISLFPLGLTDEKSNGTIALVDDSEDPGANVSNIQLQQKISSLEIKLKVSEEEKQRIKQDVESLMEKHNVLEKGFLKEKEQEAISFQDRYKELQEKHKQELEDMRKAGHEALSIIVDEYKALLQSSVKQQVEAIEKQYISAIEKQAHKCEELLNAQHQRLLEMLDTEKELLKEKIKEALIQQSQEQKEILEKCLEEERQRNKEALVSAAKLEKEAVKDAVLKVVEEERKNLEKAHAEERELWKTEHAKDQEKVSQEIQKAIQEQRKISQETVKAAIIEEQKRSEKAVEEAVKRTRDELIEYIKEQKRLDQVIRQRSLSSLELFLSCAQKQLSALIATEPVDIE [CCDC91]”: in data set [1], the “solubility in G1/S (log2)” value turned out to be 0.348. Further, the melting temperature in data set [2] (cell cycle stage: G1/S) was determined as 53 °C; in data set [2] (cell cycle stage: mitosis), 52.1 °C. In addition, the “solubility change mitosis (log2)” value in data set [3] was -0.0653. For the same sequence, the thermal stability score in data set [4] (setting [5]) is -0.397; in data set [4] (cell cycle stage: mitosis), -0.35.
Turning to “MDDKELIEYFKSQMKEDPDMASAVAAIRTLLEFLKRDKGETIQGLRANLTSAIETLCGVDSSVAVSSGGELFLRFISLASLEYSDYSKCKKIMIERGELFLRRISLSRNKIADLCHTFIKDGATILTHAYSRVVLRVLEAAVAAKKRFSVYVTESQPDLSGKKMAKALCHLNVPVTVVLDAAVGYIMEKADLVIVGAEGVVENGGIINKIGTNQMAVCAKAQNKPFYVVAESFKFVRLFPLNQQDVPDKFKYKADTLKVAQTGQDLKEEHPWVDYTAPSLITLLFTDLGVLTPSAVSDELIKLYL [EIF2B1]”, the “solubility in G1/S (log2)” value in data set [1] came to 0.101. Moreover, the melting temperature was 57.1 °C in data set [2] (cell cycle stage: G1/S) and 55.4 °C in data set [2] (cell cycle stage: mitosis). In addition, in data set [3], the “solubility change mitosis (log2)” value is -0.134. Further, the values for the thermal stability score in data set [4] (setting [5]) and in data set [4] (cell cycle stage: mitosis) were -1.83 and -1.69, respectively.
